Data on three molecules can be found in patent publication US20240209112A1 (GENOME, published 2024).

Sequences and labels used below:
T1: BCAM protein (antigenic protein coated in the ELISA) (UniProt P50895 32-547, limits assumed)
T1 construct: also called antigen protein; Lu
T1 sequence (looked up): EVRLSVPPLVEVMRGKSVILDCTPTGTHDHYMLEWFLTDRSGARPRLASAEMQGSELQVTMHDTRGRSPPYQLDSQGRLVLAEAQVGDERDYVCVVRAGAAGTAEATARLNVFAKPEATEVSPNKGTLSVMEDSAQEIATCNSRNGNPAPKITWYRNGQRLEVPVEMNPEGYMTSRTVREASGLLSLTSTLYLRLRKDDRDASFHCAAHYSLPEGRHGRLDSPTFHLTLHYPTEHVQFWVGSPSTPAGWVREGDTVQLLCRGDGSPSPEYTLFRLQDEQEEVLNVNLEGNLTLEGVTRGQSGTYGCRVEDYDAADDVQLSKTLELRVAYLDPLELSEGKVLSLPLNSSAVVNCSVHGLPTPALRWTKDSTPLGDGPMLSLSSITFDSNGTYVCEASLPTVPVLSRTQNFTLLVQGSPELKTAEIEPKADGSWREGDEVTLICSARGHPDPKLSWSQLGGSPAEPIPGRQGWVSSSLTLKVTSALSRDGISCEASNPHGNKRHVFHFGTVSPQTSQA

T2: Human BCAM expressed on transfected HEK293FT cells (human, UniProt P50895 32-628)
T2 construct: whole, on cells; also called Human BCAM antigens; 293FT/BCAM1
T2 sequence (looked up): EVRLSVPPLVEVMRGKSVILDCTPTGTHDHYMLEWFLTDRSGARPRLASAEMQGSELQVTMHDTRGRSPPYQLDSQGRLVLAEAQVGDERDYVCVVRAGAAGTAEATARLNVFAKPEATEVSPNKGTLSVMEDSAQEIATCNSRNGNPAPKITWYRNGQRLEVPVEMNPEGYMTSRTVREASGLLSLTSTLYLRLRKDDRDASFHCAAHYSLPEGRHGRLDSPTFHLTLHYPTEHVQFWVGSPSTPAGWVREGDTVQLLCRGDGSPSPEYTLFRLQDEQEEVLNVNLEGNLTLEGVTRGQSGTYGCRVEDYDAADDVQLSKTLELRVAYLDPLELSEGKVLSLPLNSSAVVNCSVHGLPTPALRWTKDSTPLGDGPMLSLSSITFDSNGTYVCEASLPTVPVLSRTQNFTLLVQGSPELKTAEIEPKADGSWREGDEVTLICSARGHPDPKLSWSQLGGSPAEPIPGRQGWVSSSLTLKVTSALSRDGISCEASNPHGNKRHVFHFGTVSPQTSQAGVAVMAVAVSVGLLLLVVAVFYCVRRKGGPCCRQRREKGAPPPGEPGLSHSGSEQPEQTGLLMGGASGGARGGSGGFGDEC

T3: Human BCAM (amine-coupled to AR2G biosensors) (human, UniProt P50895 32-547, limits assumed)
T3 construct: also called human BCAM protein
T3 sequence (looked up): T1 sequence (looked up)

B1: anti-BCAM human IgG4 antibody 111b (antibody, V domains shown)
VH: EVQLVQSGAEVKKPGASVKVSCKASGYTFTSYYMHWVRQAPGQGLEWMGIINPSGGSTSYAQKFQGRVTMTRDTSTSTVYMELSSLRSEDTAVYYCARDGKGWDYYGSGSPLQYWGQGTLVTVSS
VL: LPVLTQPPSVSKGLRQTATLTCTGNSNNVGNQGAAWLQQHQGHPPKLLSYRNNDRPSGISERLSASRSGNTASLTITGLQPEDEADYYCSAWDSSLSAWVFGGGTKLTVL
B2: anti-BCAM human IgG4 antibody 111c (antibody, V domains shown)
VH: EVQLVQSGGGLVKPGGSLRLSCAASGFTFSDYYMSWIRQAPGKGLEWVSYTSSSGSTIYYADSVKGRFTISRDNAKNSLYLQMNSLRAEDTAVYYCARDITAFDIWGQGTMVTVSS
VL: LPVLTQPPSASGSPGQSVTISCTGTSSDVGGYNYVSWYQQHPGKAPKLMIYEVNKRPSGVPDRFSGSKSGNTASLTVSGLQAEDEADYYCCSYAGSNNYVFGTGTKVTVL
B3: anti-BCAM human IgG4 antibody 111a (antibody, V domains shown)
VH: QVTLKESGPGLVKPSGTLSLTCAVSGGSISSSNWWSWVRQPPGKGLEWIGEIYHSGSTNYNPSLKSRVTISVDKSKNQFSLKLSSVTAADTAVYYCARAYTVTTTYFDYWGQGTLVTVSS
VL: NIQMTQSPSTLSASVGDRVTITCRASQSMSTWLAWYQQKPGRAPKLLIYKASALETGVPSRFSGSGSGTQFTLTISSLQPDDFATYYCQQYDEFASFGQGTKVEIK
notes: Derived from a human scFv phage library; also called 11la

In one test the target is T1, BCAM protein (antigenic protein coated …). Nature of the test: ELISA, BCAM coated at 15 nM, antibody at 0.001 nM. As to the method:
(§1) In order to confirm the binding ability of each antibody prepared in Example 1 to an antigen protein (BCAM protein), an ELISA (Enzyme-Linked Immunosorbent Assay) test was performed. The antigenic protein was diluted in PBS buffer and prepared to a concentration of 15 nM. Each well of a 96-well half plate (Costar, Cat. No. 3690) was coated with 50 μL of the antigenic protein, followed by overnight incubation at 4° C. Next day, after all the solutions in the plate were removed, a blocking buffer (3% BSA in PBS) was added to each well, followed by incubation at 37° C. for 1 hour. Three antibody samples (111a, 111b, and 111c) were sequentially diluted in the blocking buffer from 1 μM to 7 points (1 pM) at a dilution ratio of 10-fold. After the blocking process was completed, the buffer was removed from the well, and the antibodies prepared by the dilution was added to each well by 50 μL, followed by incubation at 37° C. for 2 hours. The incubated well was washed with 0.1% PBST (0.1% Tween 20 in PBS) and were treated with HRP-conjugated anti-human IgG Fc antibodies (ThermoFisher Scientific, Cat. No.: 31423) which were secondary antibodies for antibody detection at 37° C. for 1 hour, and then washed again with 0.1% PBST. ABTS solution (ThermoFisher Scientific, Cat. No.: 00-2024) was added to each well by 50 μL for coloring, and reacted at room temperature for 10 minutes, and an optical density at 405 nm (OD₄₀₅) was measured. In order to compare the degree of avidity of each antibody to antigens, the EC50 concentration of each antibody was calculated, and the results are shown in Table 4.
The molecule B1 came in with an OD405 of 0.1 OD405.

B2 registered an OD405 of 0.11 OD405.

In turn, B3 registered an OD405 of 0.1 OD405.

A further test shares this target. Nature of the test: ELISA, BCAM coated at 15 nM, antibody at 0.01 nM. As to the method: as §1
(In general: An ELISA detects its analyte on a solid surface through an enzyme-linked reagent.)
In the case of B1, the OD405 worked out at 0.15 OD405.

For B2, the OD405 turned out to be 0.25 OD405.

B3: the OD405 came to 0.11 OD405.

The target of another test is T2, Human BCAM expressed on transfected …. Nature of the test: flow cytometry on HEK293FT cells transfected with human BCAM. As for the experimental part:
Human BCAM antigens were expressed in HEK293FT cells via transfection (using 293FT/BCAM1 plasmid). The transfected HEK293FT cells (1×10⁵ cells) were suspended in PBS and 50 μL thereof was seeded on a plate.
Separately, each of the anti-BCAM antibodies of Example 1 and isotype control (human IgG) antibodies was initially diluted at a concentration of 45 μg/mL using PBS and diluted 12 times through 3-fold dilution, and the plate was incubated at an appropriate time and at an appropriate temperature. As a negative control, PBS buffer was used.
Then, after washing, AlexaFluor® 647 AffiniPure Goat Anti-Human IgG (H+L) (min X Bov, Hrs, Ms Sr Prot) (Jackson) (1 μg/mL) was added thereto and the plate was incubated again, washed again with PBS, and the binding degree of antigen-antibody was analyzed with a flow cytometer.
(In general: A flow cytometer gives signals particle by particle.)
For B1, the midpoint of the response, the EC50, lay at 0.171 µg/mL.

As for B2, the midpoint of the response, the EC50, lay at 0.0427 µg/mL.

Turning to B3, a half-maximal effect (EC50) was put at 0.189 µg/mL. Compared with the last molecule, the EC50 is about 4.4-fold higher.

A further test addresses T1, BCAM protein (antigenic protein coated …). The test can be described thus: ELISA, BCAM coated at 15 nM, antibody at 100 nM. As for the experimental part: as §1
As for B1, the OD405 came to 0.46 OD405.

As for B2, the OD405 is 2.26 OD405.

In the case of B3, the OD405 worked out at 2.14 OD405.

For the next test the target is unchanged. Nature of the test: ELISA on coated BCAM protein. As for the experimental part:
as §1
On to B1, for which a half-maximal response (EC50) required 127 nM.

With B2, it took 7.7 nM to reach a half-maximal effect (EC50).

Take B3: a half-maximal response (EC50) required 12.5 nM.

For a further test the target is unchanged. Nature of the test: ELISA, BCAM coated at 15 nM, antibody at 1000 nM. As to the method:
as §1
B1 registered an OD405 of 0.76 OD405.

Take B2: the OD405 was determined as 2.34 OD405.

B3 returned an OD405 of 2.32 OD405.

Another test deals with T3, Human BCAM (amine-coupled to AR2G …). Nature of the test: BLI (Octet QK), human BCAM amine-coupled to AR2G sensor, antibody in solution, 1:1 fit. As to the method: The binding ability confirmation test according to BLI for the three antibodies prepared in Example 1 was performed using Octet (Octet QK, ForteBio).
Specifically, in order to bind human BCAM (antigen) using amine coupling, Reactive 2nd Generation (AR2G) biosensors (Cat. No. 18-5094, Sartorius) were mounted and activated using the AE2G reagent kit (Cat. No. 18-5095). Thereafter, the biosensors were put in an antigen solution for 10 minutes to bind the human BCAM, and put in an ethanolamine solution for 5 minutes to terminate the reaction. The biosensors to which the human BCAM was bound was put into a buffer containing the prepared three different antibodies 111a, 111b, and 111c, and the binding reaction was monitored for 5 minutes, followed by a dissociation reaction for 15 minutes. At this time, antibody solutions were sequentially diluted, and association and dissociation rates depending on different concentrations were verified. The association (Ka) and dissociation (Kd) rate constants were determined by fitting them to a 1:1 binding model using a curve-fitting software. The binding dissociation equilibrium constant (KD) was calculated with KD=Kd/Ka.
In general terms: BLI is a label-free optical method that tracks binding on a fibre tip over time.
As to B1, binding was characterised by a dissociation constant (Kd) of 13.1 nM; the koff – broadly, the rate constant with which the complex falls apart – turned out to be 0.000306 s⁻¹; the kon – broadly, a measure of how fast the partners come together – worked out at 23400 M⁻¹ s⁻¹.

B2: the dissociation constant Kd (in general, a measure of binding affinity in units of concentration) turned out to be 0.084 nM; the koff is 0.000255 s⁻¹; the kon came to 3.04e+06 M⁻¹ s⁻¹.

For B3, binding was characterised by a dissociation constant (Kd) of 2.47 nM, the koff was 0.000397 s⁻¹ and the kon turned out to be 161000 M⁻¹ s⁻¹.

For the next test, the target named is T1, BCAM protein (antigenic protein coated …). Nature of the test: ELISA, BCAM coated at 15 nM, antibody at 0.1 nM. As for the experimental part:
as §1
As for B1, the OD405 amounted to 0.35 OD405.

As to B2, the OD405 was 0.31 OD405.

As for B3, the OD405 came out at 0.18 OD405.

The target is the same in a further test. The test can be described thus: ELISA, BCAM coated at 15 nM, antibody at 10 nM. As for the experimental part: as §1
Take B1: the OD405 was determined as 0.43 OD405.

For B2, the OD405 is 1.41 OD405.

B3 displayed an OD405 of 1.09 OD405.

The next test has the same target. Nature of the test: ELISA, BCAM coated at 15 nM, antibody at 1 nM. As to the method: as §1
In turn, B1 displayed an OD405 of 0.33 OD405.

The molecule B2 had an OD405 of 0.5 OD405.

B3: the OD405 was determined as 0.46 OD405.
